The target of the test is T1, hPCSK9 (Homo sapiens, UniProt Q8NBP7).
T1 construct: purchased Sino Biologicals, China; host or cells: injected into BalBC or NMRI mice
As to the kind of experiment: hPCSK9 challenge model, hepatic LDL-R expression in mice (Western Blot). Format: in vivo, mouse. Particulars: inhibitor 22 nmol/kg, hPCSK9 0.4 mg/kg i.v., healthy control = 100%, hPCSK9 alone = 0%. On the technique in general: In western blotting, separated proteins are transferred to a membrane and probed.

T1 sequence (Q8NBP7 153-692): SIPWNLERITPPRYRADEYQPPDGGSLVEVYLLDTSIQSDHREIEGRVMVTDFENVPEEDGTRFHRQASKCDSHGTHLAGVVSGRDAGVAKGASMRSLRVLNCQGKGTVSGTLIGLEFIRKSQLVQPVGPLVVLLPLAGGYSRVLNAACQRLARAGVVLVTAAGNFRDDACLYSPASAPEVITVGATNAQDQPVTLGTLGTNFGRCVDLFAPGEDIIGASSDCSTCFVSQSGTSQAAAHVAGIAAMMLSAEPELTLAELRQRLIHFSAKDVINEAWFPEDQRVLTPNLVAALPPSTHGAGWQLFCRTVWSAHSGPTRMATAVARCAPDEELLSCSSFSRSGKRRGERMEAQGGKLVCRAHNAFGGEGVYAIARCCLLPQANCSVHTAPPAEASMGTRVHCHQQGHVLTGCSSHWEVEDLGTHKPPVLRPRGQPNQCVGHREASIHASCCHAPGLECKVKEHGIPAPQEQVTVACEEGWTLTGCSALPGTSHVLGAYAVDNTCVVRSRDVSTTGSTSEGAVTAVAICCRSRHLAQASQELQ
Procedure: The aim of this study was to show the change in the LDL receptor expression level in mouse liver in response to inhibiting the action of intravenously injected hPCSK9 with an anti-PCSK9 peptide.
Healthy male BalBC or NMRI mice (Charles River, Germany) are injected with an anti-PCSK9 peptide, either s.c. or i.v. 15-120 minutes before injecting hPCSK9 (Sino Biologicals, China) intravenously in the tail vein at a dose of 0.4 mg/kg. Sixty minutes after the injection of hPCSK9, the animals are anaesthetised in isoflurane and euthanised by cervical dislocation. The liver is then quickly excised and snapfrozen in liquid nitrogen. The livers are kept at −80 degrees celsius until analysis.
Equal protein transfer was confirmed by Ponceau S (Sigma, P7170) staining of the membranes and the membranes were further blocked in blocking buffer (TBS-T, 2% Tween). […] Quantitative analysis of chemiluminescent signals from Western blots was done with MultiGauge software (Fujifilm).
“Vehicle-vehicle” is the group of healthy controls (baseline level), “vehicle-hPCSK9” is the group injected with hPCSK9 alone.
In Table 8, data are presented as percentage change in relation to the window between baseline level in healthy control animals (set to 100%) and the level after down regulation by hPCSK9 alone (set to 0%).

As to “Alirocumab: anti-PCSK9 antibody, control molecule in the hPCSK9 challenge model”, the “Percentage of baseline (hepatic LDL-R expression)” value is 157%.

(Values after US10822385B2, “EGF(A) analogues with fatty acid substituents” (Novo Nordisk A/S, priority 2016, dated 2020).)
